# Assay results published in patent US20250152742A1, “COMPOSITIONS AND METHODS FOR NEUROLOGICAL DISEASES” (Trames Bio, Inc., priority 2022, published 2025).
# B1: CODA337: engineered receptor: L131N in SEQ ID NO: 33 (protein)
# chain: MRCSPGGVWLALAASLLHVSLQGEFQRKLYKELVKNYNPLERPVANDSQPLTVYFSLSLLQIMDVDEKNQVLTTNIWLQMSWTDHYLQWNVSEYPGVKTVRFPDGQIWKPDILLYNSADERFDATFHTNVNVNSSGHCQYLPPGIFKSSCPMDLKNFPMDVQTCKLKFGSWSYGGWSLDLQMQEADISGYIPNGEWDLVGIPGKRSERFYECCKEPYPDVTFTVTMRRRMGYYLIQMYIPSLLIVILSWISFWINMDAAPARVGLGITTVLTMTTQSSGSRASLPKVSYVKAIDIWMAVCLLFVFSALLEYAAVNFVSRQHKELLRFRRKRRHHKSPMLNLFQEDEAGEGRFNFSAYGMGPACLQAKDGISVKGANNSNTTNPPPAPSKSPEEMRKLFIQRAKKIDKISRIGFPMAFLIFNMFYWIIYKIVRREDVHNQ
# modifications: synthetic sequence of chimeric LGIC
# B2: CODA945: engineered receptor: Q139E in SEQ ID NO: 33 (protein)
# chain: MRCSPGGVWLALAASLLHVSLQGEFQRKLYKELVKNYNPLERPVANDSQPLTVYFSLSLLQIMDVDEKNQVLTTNIWLQMSWTDHYLQWNVSEYPGVKTVRFPDGQIWKPDILLYNSADERFDATFHTNVLVNSSGHCEYLPPGIFKSSCPMDLKNFPMDVQTCKLKFGSWSYGGWSLDLQMQEADISGYIPNGEWDLVGIPGKRSERFYECCKEPYPDVTFTVTMRRRMGYYLIQMYIPSLLIVILSWISFWINMDAAPARVGLGITTVLTMTTQSSGSRASLPKVSYVKAIDIWMAVCLLFVFSALLEYAAVNFVSRQHKELLRFRRKRRHHKSPMLNLFQEDEAGEGRFNFSAYGMGPACLQAKDGISVKGANNSNTTNPPPAPSKSPEEMRKLFIQRAKKIDKISRIGFPMAFLIFNMFYWIIYKIVRREDVHNQ
# modifications: synthetic sequence of chimeric LGIC
# Tested on: engineered chimeric receptor SEQ ID NO: 33 and its mutants (human α7-nAChR ligand binding domain / human GlyRα1 ion pore domain) in Lenti-X 293T cells
# Test: YFP fluorescence quenching anion reporter plate reader assay (percent quench, EC50)
# Type: cell-based
# Details: for YFP fluorescence quenching using CNL001 (percent quench): receptor named in row; for YFP fluorescence quenching using Facinicline, 30 nM fac: ligand Facinicline 30 nM; for YFP fluorescence quenching using Facinicline, 300 nM fac: ligand Facinicline 300 nM; for YFP fluorescence quenching using Facinicline, 30 uM fac: ligand Facinicline 30 uM; for YFP fluorescence quenching using TC-6987, 1 uM tc6987: ligand TC-6987 1 uM; for YFP fluorescence quenching using TC-6987, 10 uM tc6987: ligand TC-6987 10 uM; for YFP fluorescence quenching using TC-6987, 500 uM tc6987: ligand TC-6987 500 uM; for YFP fluorescence quenching using Varenicline, 3 nM var: ligand Varenicline 3 nM; for YFP fluorescence quenching using Varenicline, 30 nM var: ligand Varenicline 30 nM; for YFP fluorescence quenching using Varenicline, 300 nM var: ligand Varenicline 300 nM; for YFP fluorescence quenching using Varenicline, 500 nM var: ligand Varenicline 500 nM; for YFP fluorescence quenching using Varenicline, 1 uM var: ligand Varenicline 1 uM
# Outline: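 Lenti-X 293T cells co-expressing an anion-quenchable YFP were transiently transfected with receptor DNA, then ligand was added in NaI-substituted buffer (pH 7.2) after 30 min at 37 °C. Fluorescence was read about 2 min; percent quench = mean of last 10 s over 15 s pre-ligand baseline.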
# [1] = 1 nM CNL001, first column so headed
# [2] = 1 nM CNL001, second column so headed
# [3] = 3 nM brd (TC-5619/Bradanicline)
# [4] = 10 nM CNL001, first column so headed
# [5] = 10 nM CNL001, second column so headed
# [6] = 30 nM brd (TC-5619/Bradanicline)
# [7] = 50 nM CNL001, first column so headed
# [8] = 50 nM CNL001, second column so headed
# [9] = 100 nM CNL001, first column so headed
# [10] = 100 nM CNL001, second column so headed
# [11] = 300 nM brd (TC-5619/Bradanicline)
# [12] = 1 uM CNL001, first column so headed
# [13] = 1 uM CNL001, second column so headed
molecule,measurement,setting,value
B1,YFP fluorescence quenching using CNL001 (percent quench),[1],76.917%
same,YFP fluorescence quenching using CNL001 (percent quench),[2],79.554%
same,YFP fluorescence quenching using TC-5619/Bradanicline (percent quench),[3],71.02%
same,YFP fluorescence quenching using CNL001 (percent quench),[4],79.479%
same,YFP fluorescence quenching using CNL001 (percent quench),[5],79.506%
same,YFP fluorescence quenching using TC-6683 (percent quench),30 nM TC-6683,−11.51%
same,YFP fluorescence quenching using TC-5619/Bradanicline (percent quench),[6],78.43%
same,YFP fluorescence quenching using CNL001 (percent quench),[7],81.465%
same,YFP fluorescence quenching using CNL001 (percent quench),[8],81.297%
same,YFP fluorescence quenching using ABT-126 (percent quench),50 nM abt (ABT-126),−11.64%
same,YFP fluorescence quenching using CNL001 (percent quench),[9],82.619%
same,YFP fluorescence quenching using CNL001 (percent quench),[10],81.722%
same,YFP fluorescence quenching (percent quench),100 nM CNL002,76.37%
same,YFP fluorescence quenching using ABT-126 (percent quench),100 nM abt (ABT-126),34.79%
same,YFP fluorescence quenching using AZD-0328 (percent quench),100 nM azd0328,82.1%
same,YFP fluorescence quenching using TC-6683 (percent quench),300 nM TC-6683,−13.17%
same,YFP fluorescence quenching using ABT-126 (percent quench),300 nM abt (ABT-126),60.08%
same,YFP fluorescence quenching using AZD-0328 (percent quench),300 nM azd0328,82.52%
same,YFP fluorescence quenching using TC-5619/Bradanicline (percent quench),[11],77.12%
same,YFP fluorescence quenching using CNL001 (percent quench),[12],81.96%
same,YFP fluorescence quenching using CNL001 (percent quench),[13],81.773%
same,YFP fluorescence quenching (percent quench),1 uM CNL002,80.18%
same,YFP fluorescence quenching using ABT-126 (percent quench),1 uM abt (ABT-126),65.99%
same,YFP fluorescence quenching using TC-6683 (percent quench),3 uM TC-6683,−5.46%
same,YFP fluorescence quenching (percent quench),10 uM ach (acetylcholine),28.32%
same,YFP fluorescence quenching (percent quench),30 uM CNL002,80.93%
same,YFP fluorescence quenching using TC-6683 (percent quench),30 uM TC-6683,8.53%
same,YFP fluorescence quenching using AZD-0328 (percent quench),30 uM azd0328,82.32%
same,YFP fluorescence quenching using TC-6683 (percent quench),100 uM TC-6683,14.41%
same,YFP fluorescence quenching (percent quench),100 uM ach (acetylcholine),81.8%
same,YFP fluorescence quenching (percent quench),1 mM ach (acetylcholine),71.22%
same,YFP fluorescence quenching (percent quench),3 mM ach (acetylcholine),73.7%
same,"YFP fluorescence quenching using Facinicline, 30 nM fac",,82.25
same,"YFP fluorescence quenching using Facinicline, 300 nM fac",,83.59
same,"YFP fluorescence quenching using Facinicline, 30 uM fac",,82.82
same,"YFP fluorescence quenching using TC-6987, 1 uM tc6987",,79.06
same,"YFP fluorescence quenching using TC-6987, 10 uM tc6987",,82.36
same,"YFP fluorescence quenching using TC-6987, 500 uM tc6987",,80.19
same,"YFP fluorescence quenching using Varenicline, 3 nM var",first column,3.093
same,"YFP fluorescence quenching using Varenicline, 3 nM var",second column,12.327
same,"YFP fluorescence quenching using Varenicline, 30 nM var",first column,77.097
same,"YFP fluorescence quenching using Varenicline, 30 nM var",second column,77.653
same,"YFP fluorescence quenching using Varenicline, 300 nM var",first column,79.446
same,"YFP fluorescence quenching using Varenicline, 300 nM var",second column,79.998
same,"YFP fluorescence quenching using Varenicline, 500 nM var",first column,80.691
same,"YFP fluorescence quenching using Varenicline, 500 nM var",second column,80.309
same,"YFP fluorescence quenching using Varenicline, 1 uM var",first column,80.258
same,"YFP fluorescence quenching using Varenicline, 1 uM var",second column,79.509
B2,YFP fluorescence quenching using CNL001 (percent quench),[1],6.65%
same,YFP fluorescence quenching using CNL001 (percent quench),[2],13.512%
same,YFP fluorescence quenching using TC-5619/Bradanicline (percent quench),[3],14.15%
same,YFP fluorescence quenching using CNL001 (percent quench),[4],78.678%
same,YFP fluorescence quenching using CNL001 (percent quench),[5],82.723%
same,YFP fluorescence quenching using TC-6683 (percent quench),30 nM TC-6683,−26.47%
same,YFP fluorescence quenching using TC-5619/Bradanicline (percent quench),[6],78.18%
same,YFP fluorescence quenching using CNL001 (percent quench),[7],84.91%
same,YFP fluorescence quenching using CNL001 (percent quench),[8],84.849%
same,YFP fluorescence quenching using ABT-126 (percent quench),50 nM abt (ABT-126),−8.27%
same,YFP fluorescence quenching using CNL001 (percent quench),[9],85.046%
same,YFP fluorescence quenching using CNL001 (percent quench),[10],84.642%
same,YFP fluorescence quenching (percent quench),100 nM CNL002,60.5%
same,YFP fluorescence quenching using ABT-126 (percent quench),100 nM abt (ABT-126),4.76%
same,YFP fluorescence quenching using AZD-0328 (percent quench),100 nM azd0328,−5.79%
same,YFP fluorescence quenching using TC-6683 (percent quench),300 nM TC-6683,−18.62%
same,YFP fluorescence quenching using ABT-126 (percent quench),300 nM abt (ABT-126),30.88%
same,YFP fluorescence quenching using AZD-0328 (percent quench),300 nM azd0328,58.47%
same,YFP fluorescence quenching using TC-5619/Bradanicline (percent quench),[11],76.8%
same,YFP fluorescence quenching using CNL001 (percent quench),[12],85.493%
same,YFP fluorescence quenching using CNL001 (percent quench),[13],86.071%
same,YFP fluorescence quenching (percent quench),1 uM CNL002,75.41%
same,YFP fluorescence quenching using ABT-126 (percent quench),1 uM abt (ABT-126),60.66%
same,YFP fluorescence quenching using TC-6683 (percent quench),3 uM TC-6683,−13.39%
same,YFP fluorescence quenching (percent quench),10 uM ach (acetylcholine),−1.25%
same,YFP fluorescence quenching (percent quench),30 uM CNL002,77.46%
same,YFP fluorescence quenching using TC-6683 (percent quench),30 uM TC-6683,−16.6%
same,YFP fluorescence quenching using AZD-0328 (percent quench),30 uM azd0328,66.57%
same,YFP fluorescence quenching using TC-6683 (percent quench),100 uM TC-6683,−12.89%
same,YFP fluorescence quenching (percent quench),100 uM ach (acetylcholine),71.21%
same,YFP fluorescence quenching (percent quench),1 mM ach (acetylcholine),71.79%
same,YFP fluorescence quenching (percent quench),3 mM ach (acetylcholine),76.04%
same,"YFP fluorescence quenching using Facinicline, 30 nM fac",,−7.16
same,"YFP fluorescence quenching using Facinicline, 300 nM fac",,71.17
same,"YFP fluorescence quenching using Facinicline, 30 uM fac",,72.14
same,"YFP fluorescence quenching using TC-6987, 1 uM tc6987",,−0.97
same,"YFP fluorescence quenching using TC-6987, 10 uM tc6987",,21.53
same,"YFP fluorescence quenching using TC-6987, 500 uM tc6987",,7.39
same,"YFP fluorescence quenching using Varenicline, 3 nM var",first column,8.207
same,"YFP fluorescence quenching using Varenicline, 3 nM var",second column,7.835
same,"YFP fluorescence quenching using Varenicline, 30 nM var",first column,9.509
same,"YFP fluorescence quenching using Varenicline, 30 nM var",second column,10.204
same,"YFP fluorescence quenching using Varenicline, 300 nM var",first column,9.818
same,"YFP fluorescence quenching using Varenicline, 300 nM var",second column,12.539
same,"YFP fluorescence quenching using Varenicline, 500 nM var",first column,16.762
same,"YFP fluorescence quenching using Varenicline, 500 nM var",second column,15.21
same,"YFP fluorescence quenching using Varenicline, 1 uM var",first column,48.292
same,"YFP fluorescence quenching using Varenicline, 1 uM var",second column,54.096
